Experimental data taken from publication PMC10746525, “Interaction between the mitochondrial adaptor MIRO and the motor adaptor TRAK” (The Journal of Biological Chemistry, 2023).
Each block holds one binder with its values, some of them ahead of it.

B2: MBP-TRAK1_(342-431) (domain or fragment, human, UniProt Q9UPV9 342-431, looked up)
chain: EAQEELKNLRNKTMPNTTSRRYHSLGLFPMDSLAAEIEGTMRKELQLEEAESPDITHQKRVFETVRNINQVVKQRSLTPSPMNIPGSNQS
notes: GCN4 of m5 replaced with MBP; Cloned into pMAL-c6T; source: E. coli ArcticExpress(DE3), purified (amylose, Strep-Tactin); not shown: MBP, N-terminal, kept
B4: MIRO1_(177-591) (domain or fragment, human, UniProt Q8IXI2 177-591, looked up)
chain: EEKEMKPACIKALTRIFKISDQDNDGTLNDAELNFFQRICFNTPLAPQALEDVKNVVRKHISDGVADSGLTLKGFLFLHTLFIQRGRHETTWTVLRRFGYDDDLDLTPEYLFPLLKIPPDCTTELNHHAYLFLQSTFDKHDLDRDCALSPDELKDLFKVFPYIPWGPDVNNTVCTNERGWITYQGFLSQWTLTTYLDVQRCLEYLGYLGYSILTEQESQASAVTVTRDKKIDLQKKQTQRNVFRCNVIGVKNCGKSGVLQALLGRNLMRQKKIREDHKSYYAINTVYVYGQEKYLLLHDISESEFLTEAEIICDVVCLVYDVSNPKSFEYCARIFKQHFMDSRIPCLIVAAKSDLHEVKQEYSISPTDFCRKHKMPPPQAFTCNTADAPSKDIFVKLTTMAMYPHVTQADLKSST
notes: Cloned into pETDuet-1; As purified it held 37.0% GDP and 63.0% GTP; samples exchanged with GDP or GTP were also used; also called MIRO1 EF-hands and cGTPase; source: E. coli ArcticExpress(DE3), purified (Ni-NTA, SourceQ flowthrough)
B6: MIRO1_(1-591) (domain or fragment, human, UniProt Q8IXI2 1-591, looked up)
chain: MKKDVRILLVGEPRVGKTSLIMSLVSEEFPEEVPPRAEEITIPADVTPERVPTHIVDYSEAEQSDEQLHQEISQANVICIVYAVNNKHSIDKVTSRWIPLINERTDKDSRLPLILVGNKSDLVEYSSMETILPIMNQYTEIETCVECSAKNLKNISELFYYAQKAVLHPTGPLYCPEEKEMKPACIKALTRIFKISDQDNDGTLNDAELNFFQRICFNTPLAPQALEDVKNVVRKHISDGVADSGLTLKGFLFLHTLFIQRGRHETTWTVLRRFGYDDDLDLTPEYLFPLLKIPPDCTTELNHHAYLFLQSTFDKHDLDRDCALSPDELKDLFKVFPYIPWGPDVNNTVCTNERGWITYQGFLSQWTLTTYLDVQRCLEYLGYLGYSILTEQESQASAVTVTRDKKIDLQKKQTQRNVFRCNVIGVKNCGKSGVLQALLGRNLMRQKKIREDHKSYYAINTVYVYGQEKYLLLHDISESEFLTEAEIICDVVCLVYDVSNPKSFEYCARIFKQHFMDSRIPCLIVAAKSDLHEVKQEYSISPTDFCRKHKMPPPQAFTCNTADAPSKDIFVKLTTMAMYPHVTQADLKSST
notes: Cloned into pRSFDuet-1; also called mitochondrial Rho GTPase 1, near full-length construct lacking the C-terminal transmembrane helix; source: E. coli ArcticExpress(DE3), purified (Ni-NTA, Strep-Tactin)

Key:
MIRO1_(1-591) = target: B6; assay: co-sedimentation; 5-30% glycerol gradient, proteins mixed at 4 μM each in 20 mM Hepes pH 7.5, 500 mM NaCl, 1 mM MgCl2, 1 mM CaCl2, 1 mM DTT, 0.1 μM GTP; 165,000g, 16 h, 4 °C; fractions on SDS-PAGE; conditions: both partners purified
MIRO1_(177-591) [1] = target: B4; assay: ITC; VP-ITC, 25 °C; ITC buffer (20 mM Hepes pH 7.5, 400 mM NaCl, 1 mM MgCl2, 5% w/v sucrose, 0.1 μM GTP) with 50 μM CaCl2; MIRO1_(177-591) in the syringe, TRAK1 construct in the cell; conditions: both partners purified
MIRO1_(177-591) [2] = target: B4; assay: ITC; VP-ITC, 25 °C; ITC buffer (20 mM Hepes pH 7.5, 400 mM NaCl, 1 mM MgCl2, 5% w/v sucrose, 0.1 μM GTP) with 5 mM EGTA; the binder of each row in the syringe; conditions: both partners purified
MIRO1_(177-591) E208A = target: T1, MIRO1_(177-591) E208A (human, UniProt Q8IXI2 177-591, E208A); assay: as above; conditions: both partners purified
T1 construct: source: E. coli ArcticExpress(DE3), purified (Ni-NTA, SourceQ flowthrough)

MIRO1_(177-591) E328A = target: T2, MIRO1_(177-591) E328A (human, UniProt Q8IXI2 177-591, E328A); assay: as above; conditions: both partners purified
T2 construct: source: E. coli ArcticExpress(DE3), purified (Ni-NTA, SourceQ flowthrough)

MBP-TRAK1_(342-431) [3] = target: B2; assay: ITC; VP-ITC, 25 °C; ITC buffer (20 mM Hepes pH 7.5, 400 mM NaCl, 1 mM MgCl2, 5% w/v sucrose, 0.1 μM GTP) with 50 μM CaCl2; MIRO1_(177-591) in the syringe, TRAK1 construct in the cell; conditions: both partners purified
MBP-TRAK1_(342-431) [4] = target: B2; assay: ITC; VP-ITC, 25 °C; ITC buffer (20 mM Hepes pH 7.5, 400 mM NaCl, 1 mM MgCl2, 5% w/v sucrose, 0.1 μM GTP) with 5 mM EGTA; the binder of each row in the syringe; conditions: both partners purified
[5] = target: the molecule itself; assay: mass photometry; Refeyn TwoMP, 125-150 nM protein, 100 mM NaCl, 50 μM MgCl2, 50 μM GTP with 1 mM EGTA or 100 μM CaCl2

- binding result (MIRO1_(1-591)): binds
B1: TRAK1_(99-532) (domain or fragment, human, UniProt Q9UPV9 99-532, looked up)
chain: AERVGQMTKTYNDIDAVTRLLEEKERDLELAARIGQSLLKKNKTLTERNELLEEQVEHIREEVSQLRHELSMKDELLQFYTSAAEESEPESVCSTPLKRNESSSSVQNYFHLDSLQKKLKDLEEENVVLRSEASQLKTETITYEEKEQQLVNDCVKELRDANVQIASISEELAKKTEDAARQQEEITHLLSQIVDLQKKAKACAVENEELVQHLGAAKDAQRQLTAELRELEDKYAECMEMLHEAQEELKNLRNKTMPNTTSRRYHSLGLFPMDSLAAEIEGTMRKELQLEEAESPDITHQKRVFETVRNINQVVKQRSLTPSPMNIPGSNQSSAMNSLLSSCVSTPRSSFYGSDIGNVVLDNKTNSIILETEAADLGNDERSKKPGTPGTPGSHDLETALRRLSLRRENYLSERRFFEEEQERKLQELAEKGE
notes: Cloned into pRSFDuet-1; codon-optimised synthetic cDNA; source: E. coli ArcticExpress(DE3), purified (Strep-Tactin, Ni-NTA)

Binder: B2
- Kd (MIRO1_(177-591) [1]): 2.76 µM
- Kd (MIRO1_(177-591) [2]): 8.77 µM
- binding result (MIRO1_(177-591) E208A): binds
- binding result (MIRO1_(177-591) E328A): binds

- binding result (MIRO1_(177-591) [2]): binds
B3: MBP-TRAK1_(342-431) ^400KR^401 to AA (domain or fragment, human, UniProt Q9UPV9 342-431, looked up)
chain: EAQEELKNLRNKTMPNTTSRRYHSLGLFPMDSLAAEIEGTMRKELQLEEAESPDITHQAAVFETVRNINQVVKQRSLTPSPMNIPGSNQS
notes: source: E. coli ArcticExpress(DE3), purified (amylose, Strep-Tactin); not shown: MBP, N-terminal, kept

Binder: B4
- stoichiometry N (MBP-TRAK1_(342-431) [3]): 1.11
- stoichiometry N (MBP-TRAK1_(342-431) [4]): 1.09

B5: MBP-MIRO1_(1-180) (domain or fragment, human, UniProt Q8IXI2 1-180, looked up)
chain: MKKDVRILLVGEPRVGKTSLIMSLVSEEFPEEVPPRAEEITIPADVTPERVPTHIVDYSEAEQSDEQLHQEISQANVICIVYAVNNKHSIDKVTSRWIPLINERTDKDSRLPLILVGNKSDLVEYSSMETILPIMNQYTEIETCVECSAKNLKNISELFYYAQKAVLHPTGPLYCPEEKE
notes: human MIRO1, residues 1-180 (nGTPase); Cloned into pMAL-c6T; also called nGTPase of MIRO1 fused to MBP; source: E. coli ArcticExpress(DE3), purified (Strep-Tactin, MonoQ); not shown: MBP, N-terminal, kept
- binding result [5]: binds

Binder: B6
- binding result [5]: binds

- binding result (MIRO1_(177-591) [2]): binds
B7: TRAK1_(394-434) (peptide, UniProt Q9UPV9 394-434, looked up)
peptide: PDITHQKRVFETVRNINQVVKQRSLTPSPMNIPGSNQSSAM
notes: Cloned into pMAL-c6T; also called TRAK1 peptide narrowly encompassing CR2; not shown: 6xHis-MBP, N-terminal, cleaved
